Series [1] concerns GST protein (negative control, from pGEX2TK) [GST: P08515].
Series [2] relates to GST-2E11 recombinant protein (fusion between a KCNQ2-15b polypeptide comprising exons 13, 14 and 15b and GST).
Sequence of GST-2E11 recombinant protein (fusion between a KCNQ2-15b polypeptide comprising exons 13, 14 and 15b and GST) (chain, as listed by the source): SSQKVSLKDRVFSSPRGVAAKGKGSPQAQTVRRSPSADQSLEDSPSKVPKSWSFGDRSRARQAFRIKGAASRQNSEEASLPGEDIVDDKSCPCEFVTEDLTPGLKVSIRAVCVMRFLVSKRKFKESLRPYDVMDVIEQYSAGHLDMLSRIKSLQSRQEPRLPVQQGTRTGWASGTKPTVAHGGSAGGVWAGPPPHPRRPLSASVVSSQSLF

Sequence of GST protein (negative control, from pGEX2TK) [GST: P08515] (P08515 whole entry, the tested form may be a part): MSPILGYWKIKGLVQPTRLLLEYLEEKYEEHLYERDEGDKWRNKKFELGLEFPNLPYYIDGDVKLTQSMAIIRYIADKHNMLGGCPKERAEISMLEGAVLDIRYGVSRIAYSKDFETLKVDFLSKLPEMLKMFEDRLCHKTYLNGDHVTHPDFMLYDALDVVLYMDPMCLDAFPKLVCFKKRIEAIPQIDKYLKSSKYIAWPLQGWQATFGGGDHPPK

As for “recombinant GSK-3β kinase (New England Biolabs)”, the “in vitro phosphorylation, 32P autoradiography after SDS-PAGE” value in series [1] is “No bands appeared in the three lines corresponding to the negative controls”; in series [2], “Thus the GST-2E11 protein is phosphorylated by GSK-3β and PKA in vitro”.

In the case of “PP2A phosphatase in whole cell extracts of the human glioblastoma, astrocytoma cell line HTB-14”, in series [2], the “in vitro dephosphorylation, loss of the 32P band, with or without okadaic acid” value is reported as “In the line loaded with GST-2E11 fusion proteins incubated in the presence of HTB-14 cell extracts, the band had an extremely weaker intensity”.

On to “Protein Kinase A Catalytic Subunit (PKA from bovine heart, Sigma)”, for which the “in vitro phosphorylation, 32P autoradiography after SDS-PAGE” value in series [1] is “No bands appeared in the three lines corresponding to the negative controls”; in series [2], “Thus the GST-2E11 protein is phosphorylated by GSK-3β and PKA in vitro”.

Source of the values: patent US20040203128.
